Data: the supplement of paper PMC10567573

B1: ZNF263 (parent)
chain: QRTHTGEKPYKCPECGEIFAHSSN

Variants of: B1
Assay: protein stability index of a GFP-peptide fusion (GPS, HEK-293T) (PSI 1-6); higher = more stable
Settings: c terminus: a fixed tail appended
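Also: lentivirally expressed fusions sorted by FACS into six bins by GFP to DsRed ratio, PSI derived from sequencing read proportions per bin multiplied by bin number.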

**Q.** For SRTHTGEKPYKCPECGEIFAHSSN, which protein stability index is on record?
**A.** 3.14

**Q.** Which protein stability index does the source give for VRTHTGEKPYKCPECGEIFAHSSN here?
**A.** 2.85

**Q.** Which protein stability index does the source give for RRTHTGEKPYKCPECGEIFAHSSN here?
**A.** 2.97

**Q.** Which protein stability index does the source give for MRTHTGEKPYKCPECGEIFAHSSN here?
**A.** 2.71

**Q.** Which protein stability index does the source give for DRTHTGEKPYKCPECGEIFAHSSN here?
**A.** 3.36

**Q.** Which protein stability index does the source give for PRTHTGEKPYKCPECGEIFAHSSN here?
**A.** 3.7

**Q.** Which protein stability index does the source give for NRTHTGEKPYKCPECGEIFAHSSN here?
**A.** 3.46

**Q.** With ERTHTGEKPYKCPECGEIFAHSSN as the variant, how does the protein stability index read?
**A.** 3.46

**Q.** With QHTHTGEKPYKCPECGEIFAHSSN as the variant, how does the protein stability index read?
**A.** 4.35

**Q.** Which protein stability index does the source give for QYTHTGEKPYKCPECGEIFAHSSN here?
**A.** 3.02

**Q.** For QSTHTGEKPYKCPECGEIFAHSSN, which protein stability index is on record?
**A.** 3.88

**Q.** For QITHTGEKPYKCPECGEIFAHSSN, which protein stability index is on record?
**A.** 3.32

**Q.** For QDTHTGEKPYKCPECGEIFAHSSN, which protein stability index is on record?
**A.** 4.06

**Q.** For QNTHTGEKPYKCPECGEIFAHSSN, which protein stability index is on record?
**A.** 4.07

**Q.** Which protein stability index does the source give for QWTHTGEKPYKCPECGEIFAHSSN here?
**A.** 2.9

**Q.** Which protein stability index does the source give for QFTHTGEKPYKCPECGEIFAHSSN here?
**A.** 2.82

**Q.** With QVTHTGEKPYKCPECGEIFAHSSN as the variant, how does the protein stability index read?
**A.** 2.88

**Q.** For QATHTGEKPYKCPECGEIFAHSSN, which protein stability index is on record?
**A.** 3.34

**Q.** Which protein stability index does the source give for QLTHTGEKPYKCPECGEIFAHSSN here?
**A.** 3.6

**Q.** For QPTHTGEKPYKCPECGEIFAHSSN, which protein stability index is on record?
**A.** 3.77

**Q.** With QKTHTGEKPYKCPECGEIFAHSSN as the variant, how does the protein stability index read?
**A.** 2.92

**Q.** With QQTHTGEKPYKCPECGEIFAHSSN as the variant, how does the protein stability index read?
**A.** 3.3

**Q.** With QTTHTGEKPYKCPECGEIFAHSSN as the variant, how does the protein stability index read?
**A.** 3.45

**Q.** With QETHTGEKPYKCPECGEIFAHSSN as the variant, how does the protein stability index read?
**A.** 3.78

**Q.** With QMTHTGEKPYKCPECGEIFAHSSN as the variant, how does the protein stability index read?
**A.** 2.62

**Q.** With QGTHTGEKPYKCPECGEIFAHSSN as the variant, how does the protein stability index read?
**A.** 4.29

**Q.** For QCTHTGEKPYKCPECGEIFAHSSN, which protein stability index is on record?
**A.** 4.86

**Q.** With QRNHTGEKPYKCPECGEIFAHSSN as the variant, how does the protein stability index read?
**A.** 3.79

**Q.** For QRYHTGEKPYKCPECGEIFAHSSN, which protein stability index is on record?
**A.** 2.58

**Q.** With QRDHTGEKPYKCPECGEIFAHSSN as the variant, how does the protein stability index read?
**A.** 3.5

**Q.** Which protein stability index does the source give for QRGHTGEKPYKCPECGEIFAHSSN here?
**A.** 4.28

**Q.** For QRCHTGEKPYKCPECGEIFAHSSN, which protein stability index is on record?
**A.** 3.27

**Q.** Which protein stability index does the source give for QRFHTGEKPYKCPECGEIFAHSSN here?
**A.** 2.67

**Q.** Which protein stability index does the source give for QRPHTGEKPYKCPECGEIFAHSSN here?
**A.** 3.37

**Q.** For QREHTGEKPYKCPECGEIFAHSSN, which protein stability index is on record?
**A.** 3.51

**Q.** Which protein stability index does the source give for QRQHTGEKPYKCPECGEIFAHSSN here?
**A.** 2.86

**Q.** For QRMHTGEKPYKCPECGEIFAHSSN, which protein stability index is on record?
**A.** 3.43

**Q.** Which protein stability index does the source give for QRRHTGEKPYKCPECGEIFAHSSN here?
**A.** 2.85

**Q.** Which protein stability index does the source give for QRAHTGEKPYKCPECGEIFAHSSN here?
**A.** 3.55

**Q.** For QRLHTGEKPYKCPECGEIFAHSSN, which protein stability index is on record?
**A.** 3.31

**Q.** Which protein stability index does the source give for QRIHTGEKPYKCPECGEIFAHSSN here?
**A.** 2.93

**Q.** Which protein stability index does the source give for QRHHTGEKPYKCPECGEIFAHSSN here?
**A.** 3.51

**Q.** Which protein stability index does the source give for QRSHTGEKPYKCPECGEIFAHSSN here?
**A.** 3.43

**Q.** With QRWHTGEKPYKCPECGEIFAHSSN as the variant, how does the protein stability index read?
**A.** 2.53

**Q.** With QRVHTGEKPYKCPECGEIFAHSSN as the variant, how does the protein stability index read?
**A.** 3.04

**Q.** For QRKHTGEKPYKCPECGEIFAHSSN, which protein stability index is on record?
**A.** 3.28

**Q.** Which protein stability index does the source give for QRTHNGEKPYKCPECGEIFAHSSN here?
**A.** 3.57

**Q.** Which protein stability index does the source give for QRTHVGEKPYKCPECGEIFAHSSN here?
**A.** 3.06

**Q.** For QRTHAGEKPYKCPECGEIFAHSSN, which protein stability index is on record?
**A.** 3.25

**Q.** For QRTHIGEKPYKCPECGEIFAHSSN, which protein stability index is on record?
**A.** 3.03

**Q.** Which protein stability index does the source give for QRTHSGEKPYKCPECGEIFAHSSN here?
**A.** 3.21

**Q.** With QRTHGGEKPYKCPECGEIFAHSSN as the variant, how does the protein stability index read?
**A.** 3.41

**Q.** With QRTHQGEKPYKCPECGEIFAHSSN as the variant, how does the protein stability index read?
**A.** 3.65

**Q.** For QRTHRGEKPYKCPECGEIFAHSSN, which protein stability index is on record?
**A.** 2.27

**Q.** With QRTHDGEKPYKCPECGEIFAHSSN as the variant, how does the protein stability index read?
**A.** 3.6

**Q.** Which protein stability index does the source give for QRTHFGEKPYKCPECGEIFAHSSN here?
**A.** 2.92

**Q.** With QRTHYGEKPYKCPECGEIFAHSSN as the variant, how does the protein stability index read?
**A.** 3.11

**Q.** For QRTHLGEKPYKCPECGEIFAHSSN, which protein stability index is on record?
**A.** 2.99

**Q.** With QRTHCGEKPYKCPECGEIFAHSSN as the variant, how does the protein stability index read?
**A.** 3.81

**Q.** Which protein stability index does the source give for QRTHWGEKPYKCPECGEIFAHSSN here?
**A.** 2.33

**Q.** With QRTHKGEKPYKCPECGEIFAHSSN as the variant, how does the protein stability index read?
**A.** 3

**Q.** With QRTHMGEKPYKCPECGEIFAHSSN as the variant, how does the protein stability index read?
**A.** 3.09

**Q.** For QRTHHGEKPYKCPECGEIFAHSSN, which protein stability index is on record?
**A.** 3.75

**Q.** With QRTHEGEKPYKCPECGEIFAHSSN as the variant, how does the protein stability index read?
**A.** 2.89

**Q.** Which protein stability index does the source give for QRTHPGEKPYKCPECGEIFAHSSN here?
**A.** 2.74

**Q.** For QRTYTGEKPYKCPECGEIFAHSSN, which protein stability index is on record?
**A.** 2.77

**Q.** With QRTWTGEKPYKCPECGEIFAHSSN as the variant, how does the protein stability index read?
**A.** 3.08

**Q.** For QRTATGEKPYKCPECGEIFAHSSN, which protein stability index is on record?
**A.** 2.92

**Q.** Which protein stability index does the source give for QRTRTGEKPYKCPECGEIFAHSSN here?
**A.** 3.58

**Q.** With QRTSTGEKPYKCPECGEIFAHSSN as the variant, how does the protein stability index read?
**A.** 3.7

**Q.** Which protein stability index does the source give for QRTETGEKPYKCPECGEIFAHSSN here?
**A.** 3.02

**Q.** For QRTQTGEKPYKCPECGEIFAHSSN, which protein stability index is on record?
**A.** 3.52

**Q.** With QRTTTGEKPYKCPECGEIFAHSSN as the variant, how does the protein stability index read?
**A.** 3.02

**Q.** With QRTPTGEKPYKCPECGEIFAHSSN as the variant, how does the protein stability index read?
**A.** 3.27

**Q.** For QRTDTGEKPYKCPECGEIFAHSSN, which protein stability index is on record?
**A.** 3.98

**Q.** Which protein stability index does the source give for QRTCTGEKPYKCPECGEIFAHSSN here?
**A.** 3.29

**Q.** For QRTNTGEKPYKCPECGEIFAHSSN, which protein stability index is on record?
**A.** 3.28

**Q.** With QRTVTGEKPYKCPECGEIFAHSSN as the variant, how does the protein stability index read?
**A.** 2.85

**Q.** For QRTLTGEKPYKCPECGEIFAHSSN, which protein stability index is on record?
**A.** 3.4

**Q.** For QRTFTGEKPYKCPECGEIFAHSSN, which protein stability index is on record?
**A.** 3.37

**Q.** Which protein stability index does the source give for QRTMTGEKPYKCPECGEIFAHSSN here?
**A.** 3.44

**Q.** With QRTITGEKPYKCPECGEIFAHSSN as the variant, how does the protein stability index read?
**A.** 3.01

**Q.** With QRTKTGEKPYKCPECGEIFAHSSN as the variant, how does the protein stability index read?
**A.** 3.77

**Q.** Which protein stability index does the source give for QRTGTGEKPYKCPECGEIFAHSSN here?
**A.** 3.25

**Q.** With QRTHTGEMPYKCPECGEIFAHSSN as the variant, how does the protein stability index read?
**A.** 3.4

**Q.** For QRTHTGEHPYKCPECGEIFAHSSN, which protein stability index is on record?
**A.** 3.35

**Q.** With QRTHTGEFPYKCPECGEIFAHSSN as the variant, how does the protein stability index read?
**A.** 2.89

**Q.** With QRTHTGEAPYKCPECGEIFAHSSN as the variant, how does the protein stability index read?
**A.** 3.31

**Q.** For QRTHTGEDPYKCPECGEIFAHSSN, which protein stability index is on record?
**A.** 3.3

**Q.** With QRTHTGEEPYKCPECGEIFAHSSN as the variant, how does the protein stability index read?
**A.** 3.82

**Q.** Which protein stability index does the source give for QRTHTGEGPYKCPECGEIFAHSSN here?
**A.** 3.81

**Q.** With QRTHTGELPYKCPECGEIFAHSSN as the variant, how does the protein stability index read?
**A.** 3.41

**Q.** For QRTHTGECPYKCPECGEIFAHSSN, which protein stability index is on record?
**A.** 5.15

**Q.** With QRTHTGEIPYKCPECGEIFAHSSN as the variant, how does the protein stability index read?
**A.** 2.66
